Assay results reported in patent US20250228895A1, “COMPOUNDS TO INHIBIT YTHDF2, T HELPER CELLS LACKING EXPRESSION OF YTHDF2, AND METHODS TO TREAT CANCER” (City of Hope, priority 2024, published 2025).

Assays:
CX3CR1 = biological target: T1, CX3CR1 (Mus musculus, UniProt Q9Z0D9); assay: Transwell BMDM migration assay with tumor supernatant and CX3CR1 blocking; assay type: cell-based; settings: BMDMs pretreated overnight with 10 μM
T1 construct: BMDMs in the insert were pretreated overnight with 10 μM AZD8797; endogenous in cells; host or cells: primary bone-marrow-derived macrophages (BMDMs) from C57BL/6 mice
T1 sequence (Q9Z0D9 1-354): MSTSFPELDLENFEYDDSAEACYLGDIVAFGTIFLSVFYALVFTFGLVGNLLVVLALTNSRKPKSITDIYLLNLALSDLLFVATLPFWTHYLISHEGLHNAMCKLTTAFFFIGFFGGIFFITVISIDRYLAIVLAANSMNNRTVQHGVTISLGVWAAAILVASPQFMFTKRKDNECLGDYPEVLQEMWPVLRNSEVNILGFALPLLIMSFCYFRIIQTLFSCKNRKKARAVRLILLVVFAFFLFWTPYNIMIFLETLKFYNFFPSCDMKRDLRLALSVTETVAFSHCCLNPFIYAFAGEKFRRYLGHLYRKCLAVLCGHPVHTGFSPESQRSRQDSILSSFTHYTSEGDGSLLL

B16-OVA cells = assay: WT vs Ythdf2-KO B16-OVA tumor growth in C57BL/6 mice with AZD8797 or liposomal clodronate; assay type: in vivo, mouse; settings: 1 mg/kg i.p. once per day
Source text: FIGS. 24A-24L show loss of YTHDF2 in tumor cells promotes the recruitment of CX3CR1^+ macrophage via CX3CL1. (A) Volcano plot showing the differentially expressed genes (DEGs) between WT and Ythdf2-KO MC38 tumor. DEGs with an absolute log-transformed fold change of >0.25 and adjusted P value of <0.05 (determined by two-sided Wilcoxon rank-sum test and adjusted using the Bonferroni correction) were defined as significant. […] (C) Heatmap of differential expression genes in leukocyte migration pathway between WT and Ythdf2-KO MC38 tumor cells. […] (E) The absolute number of CX3CR1^+F4/80^+CD11b^+ TAMs from WT and Ythdf2-KO B16-OVA tumors after tumor inoculation (n=3 tumors per group). (F) Schematic representation of a transwell coculture assay involving BMDMs treated with WT or Ythdf2-KO tumor supernatant. (G) Migration cell number of BMDMs induced by WT or Ythdf2-KO B16-OVA tumor cells cultured supernatants, measured with a transwell assay (n=3 samples per group). (H) Migration cell number of BMDMs induced by WT or Ythdf2-KO B16-OVA tumor cell culture supernatant with or without AZD8797, measured with a transwell assay (n=3 samples per group). […] C57BL/6 mice received either an intraperitoneal injection of AZD8797 (1 mg/kg) or an equal amount of PBS once per day for 13 days. Tumor size was measured (n=5 tumors per group). […] Tumor size was measured (n=5 tumors per group). […]

B16-OVA = B16-OVA tumor model, intra-tumoral CpG-Ythdf2 siRNA; assay type: in vivo, mouse
Source text: FIGS. 7A-7G: TLR9-targeted YTHDF2 silencing in TAMs suppresses tumor growth and synergizes with anti-PD-L1 blockade. FIG. 7A: Scheme of therapeutic strategies that use CpG-Ythdf2 siRNA alone or in combination with anti-PD-L1. FIG. 7B: B16-OVA or MC38 tumor growth in mice treated with CpG-Ythdf2 siRNA, CpG-scrambled siRNA, CpG only, or PBS (n=5 per group). FIG. 7C: Percentages of tumor-infiltrating IFN-γ-producing CD8^+ T cells in B16-OVA (n=5 per group) or MC38 tumor models (n=5 for PBS group; n=3 for CpG only, CpG-Scrambled siRNA, and CpG-Ythdf2 groups) as described in FIG. 7B. For the MC38 model, tumors in the CpG only, CpG-Scrambled siRNA, and CpG-Ythdf2 groups were pooled for flow cytometry due to small tumor size (sample size after pooling n=3). FIG. 7D: B16-OVA tumor growth in mice treated with CpG-Ythdf2 siRNA, CpG-scrambled siRNA, or in combination with anti-PD-L1 (left, n=5-6 per group) and percentages of tumor-infiltrating IFN-γ-producing CD8^+ T cells (right, n=5 for CpG-scrambled siRNA plus IgG and CpG-scrambled siRNA plus anti-PD-L1 groups, n=3 for CpG-Ythdf2 siRNA plus IgG and CpG-Ythdf2 siRNA plus anti-PD-L1 groups). Tumors from the CpG-Ythdf2 siRNA plus IgG and CpG-Ythdf2 siRNA plus anti-PD-L1 groups were pooled for flow cytometry due to small tumor size (sample size after pooling n=3). FIG. 7E: IFN-γ and granzyme B production by Ly95 T cells when co-cultured with WT or YTHDF2 knock-down macrophages preloaded with NY-ESO157-c165 peptide (n=5). FIGS. 7F-7G: Colon cancer sections were immunohistochemically stained with YTHDF2 plus CD68 or CD8 alone. Dash lines outline the edge of tumor zones. Asterisk marks the stroma tissues. Representative YTHDF2^+CD68^+ high (Patient #11) and YTHDF2^+CD68^+ low (Patient #2) specimens are shown (FIG. 7F). Scale bars=100 μm. Black rows mark YTHDF2^+CD68^+ cells. Correlations between YTHDF2^+CD68^+ cells and CD8^+ T cells in the stroma area are shown (FIG. 7G: n=18 patients). Data are shown as mean SD and were analyzed with one-way ANOVA with the Holm-Šídík post-test (FIGS. 7C-7E) or two-way ANOVA with mixed-effects model (FIGS. 7B, 7D) and adjusted by the Holm-Šídík post-test or Spearman correlation (FIG. 7G). Data in FIGS. 7B-7E are representative of at least two independent experiments (*P<0.05, **P<0.01, ***P<0.001, ****P<0.0001).
Tumor models and treatments. B16-OVA (2×10^5) or MC38 cells (2×10^5) were implanted subcutaneously (s.c.) into the flank of mice. […] For the lung metastatic melanoma model, B16F10 cells (1×10^5) were injected intravenously (i.v.) into the mice. Fourteen days after injection, mice were euthanized for post-mortem analysis. Metastatic nodules in the lung were analyzed macroscopically and counted. […] To co-transfer with macrophages, B16-OVA (2×10^5) or MC38 cells (2×10^5) were mixed with an equal number of bone marrow-derived macrophages (BMDMs) from WT or Ythdf2-cKO mice and implanted s.c. into the flank of WT mice, or Rag1^−/− mice injected i.v. without or with CD3^+ T cells (5×10^6). To knock down Stat1 using siRNA, BMDMs were transfected with siGENOME mouse Stat1 siRNA (Catalog: M-058881-02-0005, Horizon) at 100 nM using lipofectamine 3000 (Invitrogen). 48 h later, cells were collected and mixed with an equal number of B16-OVA cells (2×10^5) and implanted s.c. into the flank of WT mice.
For the uptake studies, CpG-Ythdf2 siRNA (SS) was labeled using […] Cy3. In vivo delivery of CpG-Ythdf2 siRNA for treatment began when the largest diameter of the tumors reached 5-8 mm-typically 5-7 days after inoculation. Mice were injected intratumorally every other day with 5 mg/kg of CpG-Ythdf2 siRNA, CpG-scrambled siRNAs, CpG alone or PBS in a volume of 20 μL. Tumor growth was monitored every other day.

MC38 = MC38 tumor model, intra-tumoral CpG-Ythdf2 siRNA; assay type: in vivo, mouse
Source text: FIGS. 7A-7G: TLR9-targeted YTHDF2 silencing in TAMs suppresses tumor growth and synergizes with anti-PD-L1 blockade. FIG. 7A: Scheme of therapeutic strategies that use CpG-Ythdf2 siRNA alone or in combination with anti-PD-L1. FIG. 7B: B16-OVA or MC38 tumor growth in mice treated with CpG-Ythdf2 siRNA, CpG-scrambled siRNA, CpG only, or PBS (n=5 per group). FIG. 7C: Percentages of tumor-infiltrating IFN-γ-producing CD8^+ T cells in B16-OVA (n=5 per group) or MC38 tumor models (n=5 for PBS group; n=3 for CpG only, CpG-Scrambled siRNA, and CpG-Ythdf2 groups) as described in FIG. 7B. For the MC38 model, tumors in the CpG only, CpG-Scrambled siRNA, and CpG-Ythdf2 groups were pooled for flow cytometry due to small tumor size (sample size after pooling n=3). […] Data are shown as mean SD and were analyzed with one-way ANOVA with the Holm-Šídík post-test (FIGS. 7C-7E) or two-way ANOVA with mixed-effects model (FIGS. 7B, 7D) and adjusted by the Holm-Šídík post-test or Spearman correlation (FIG. 7G). […]
(§1) Tumor models and treatments. […] Metastatic nodules in the lung were analyzed macroscopically and counted. […]
For the uptake studies, CpG-Ythdf2 siRNA (SS) was labeled using fluorescein Cy3. […] Tumor growth was monitored every other day.

Ythdf2 mRNA = assay: qPCR of Ythdf2 mRNA in sorted TAMs of treated B16-OVA-bearing mice; assay type: in vivo, mouse; settings: vs CpG-scrambled siRNA group
Procedure: FIGS. 15A-15P: TLR9 expression and CpG-Ythdf2 siRNA design as well as its uptake by macrophages associated with anti-tumor effect in vivo. FIG. 15A: Violin plot showing the Tlr9 expression across 15 cell clusters from scRNA-seq data in this study. FIG. 15B: Sequence of the CpG-linked mouse Ythdf2 siRNA conjugate (CpG-Ythdf2 siRNA). FIGS. 15C-15D: BMDMs were incubated with different doses of Cy3-labeled CpG-Ythdf2 siRNA (FIG. 15C) or with 100 nM Cy3-labeled CpG-Ythdf2 siRNA for the indicated times (FIG. 15D). CpG-Ythdf2 siRNA uptake was examined by flow cytometry. Data shown are representative histograms. FIG. 15E: Cy3-labeled CpG-Ythdf2 siRNA or CpG only was injected into B16-OVA tumors of C57BL/6 mice. […] Median fluorescence intensity (MFI) is shown. Data are shown as mean±SD and were analyzed with an unpaired two-tailed t-test (FIGS. 15F-15I) or one-way ANOVA with the Holm-Šídík post-test (FIGS. 15J-15K) or two-way ANOVA with the mixed-effects model and adjusted by Holm-Šídík post-test (FIG. 15L). […]
Quantitative real-time RT-PCR (qPCR). RNA was isolated using an RNeasy Mini Kit (QIAGEN) and then reverse transcribed to cDNA with PrimeScript RT Reagent Kit with gDNA Eraser (Takara Bio) following the manufacturer's instructions. mRNA expression levels were analyzed using SYBR Green PCR Master Mix and a QuantStudio 12K Flex Real-Time PCR System (both from Thermo Fisher Scientific).

B16F10 = B16F10 lung metastasis model, intravenous CpG-Ythdf2 siRNA; assay type: in vivo, mouse
Procedure: FIGS. 15A-15P: TLR9 expression and CpG-Ythdf2 siRNA design as well as its uptake by macrophages associated with anti-tumor effect in vivo. FIG. 15A: Violin plot showing the Tlr9 expression across 15 cell clusters from scRNA-seq data in this study. FIG. 15B: Sequence of the CpG-linked mouse Ythdf2 siRNA conjugate (CpG-Ythdf2 siRNA). FIGS. 15C-15D: BMDMs were incubated with different doses of Cy3-labeled CpG-Ythdf2 siRNA (FIG. 15C) or with 100 nM Cy3-labeled CpG-Ythdf2 siRNA for the indicated times (FIG. 15D). CpG-Ythdf2 siRNA uptake was examined by flow cytometry. Data shown are representative histograms. FIG. 15E: Cy3-labeled CpG-Ythdf2 siRNA or CpG only was injected into B16-OVA tumors of C57BL/6 mice. […] Data shown are representative histograms. FIG. 15F: mRNA levels of Ythdf2 in macrophages sorted from tumor tissues of B16-OVA-bearing mice treated with CpG-Ythdf2 siRNA or CpG-scrambled siRNA (n=3 per group). […] Median fluorescence intensity (MFI) is shown. Data are shown as mean±SD and were analyzed with an unpaired two-tailed t-test (FIGS. 15F-15I) or one-way ANOVA with the Holm-Šídík post-test (FIGS. 15J-15K) or two-way ANOVA with the mixed-effects model and adjusted by Holm-Šídík post-test (FIG. 15L). […]
as §1

[1] = 5 mg/kg intratumorally every other day, vs CpG-scrambled siRNA
[2] = intra-tumoral, vs CpG-scrambled siRNA
[3] = vs CpG-Ythdf2 siRNA alone or anti-PD-L1 mAb alone

CC(C)C[C@H](CO)Nc1nc(S[C@@H](C)c2ccccc2)nc2nc(N)sc12 [AZD8797]
macrophage migration induced by WT vs Ythdf2-KO tumor supernatant (CX3CR1): differences in macrophage migration between WT and Ythdf2 KO groups disappeared | difference of tumor growth between WT and Ythdf2-KO tumor (B16-OVA cells): abolished the difference of tumor growth

B1: CpG-Ythdf2 siRNA: Ythdf2 siRNA conjugated to TLR9 agonist CpG1668 ODN by carbon linker; SS SEQ ID NO:1-linker-SEQ ID NO:3, AS SEQ ID NO:2 (nucleic acid)
sense: TCCATGACGTTCCTGATGCT
chain: GCAAACUUGCAGUUUAUGUAU
antisense: AUACAUAAACUGCAAGUUUGCUU
modifications: carbon linker joining SEQ 1 and SEQ 3; modified_base 1..20 OTHER; phosphorothioate bond; modified_base 7 OTHER; Uracil; modified_base 8 OTHER; modified_base 13 OTHER; modified_base 14 OTHER; modified_base 15 OTHER; modified_base 17 OTHER; modified_base 19 OTHER; modified_base 21 OTHER; modified_base 1..3 OTHER; modified_base 2 OTHER; modified_base 6 OTHER; modified_base 11 OTHER; modified_base 18 OTHER; modified_base 22 OTHER; modified_base 23 OTHE
tumor growth (B16-OVA; [1]): significantly inhibited tumor growth | tumor growth in Batf3 KO mice (B16-OVA; Batf3 KO mice lacking cDC1 cells, vs CpG-scrambled siRNA): still inhibited tumor growth | proportion of M1 TAMs (B16-OVA; [2]): significantly up-regulated | proportion of M2 TAMs (B16-OVA; [2]): down-regulated | CD8+ cytotoxic T cell responses, combination with anti-PD-L1 antibody (B16-OVA; [3]): increased | tumor growth, combination with anti-PD-L1 antibody (B16-OVA; [3]): reduced tumor growth | percentage of IFN-γ-producing CD8+ T cells (B16-OVA; vs CpG-scrambled siRNA group): significantly higher | tumor growth (MC38; [1]): significantly inhibited tumor growth | percentage of IFN-γ-producing CD8+ T cells (MC38; vs CpG-scrambled siRNA group): significantly higher | mRNA levels of Ythdf2 in sorted TAMs (Ythdf2 mRNA): significantly lower | tumor metastasis (lung metastatic nodules) (B16F10; intravenous injection, vs CpG-scrambled siRNA): inhibited tumor metastasis | percentage of IFN-γ-producing CD8+ T cells (B16F10; lung, vs CpG-scrambled siRNA group): significantly higher
